What all share (assay type): cell-based, human
Series [1] has as its system forward differentiating hES culture. Nature of the series: Two stage protocol: Pan-CM 8 days then second stage medium with MG132, DAPT, forskolin, sodium propionate; transcript analysis. As to conditions: compared with MG132. The protocol: As a means to optimize the differentiation of insulin producing cells a two stage protocol was used in which pluripotent cultures were incubated in the presence of Pan-CM for 8 days as a means of generating pancreatic precursors cellular population. The medium these cultures were incubated in were subsequently changed to a medium designed to enhance differentiation of a pancreatic precursor towards a beta-cell terminal fate. All second stage experiments were performed in a medium composed of DMEM/F12 containing 12 mM Glucose supplemented with 1% B27, 1% Pyruvate, 1 uM Alk5 Inh II, 500 ng/ml Noggin and 0.5 uM (1,25 OH2)-Vit D3.
Among the compounds assayed for the ability to increase insulin production in a forward differentiating culture was the proteosomal inhibitor MG132 which we used in the previous example to stabilize Ngn3 protein. We also included the gamma secretase inhibitor DAPT, which was shown in the previous example to greatly increase beta-cell formation in the developing embryonic pancreatic explant study. We also included the short fatty acid salt sodium propionate, which acts as an agonist of short-chain fatty acid receptors. We also included the adenylyl cyclase activator forskolin. We also included the nuclear hormone receptor agonist 1,25 (OH)2)-Vit D3, which binds to, and activates the VDR protein. We also used intermediate concentrations of glucose, shown by others to increase formation of insulin producing cells from pluripotent derivatives. These compounds were used individually or in combination (as outlined in FIG. 37 panel A) to increase insulin-producing endocrine cell formation in a short term Pan-CM treated forward differentiating hES culture system.

Another series has as its system hES cultures. In words: Individual defined medium components added throughout stages 2 and 3 of a directed differentiation protocol, qRT-PCR and IHC. As to conditions: for Pdx1 relative transcript level over hES levels / FoxA2 relative transcript level over hES levels: additive throughout stage 2 and stage 3; for Pdx1 relative transcript level over hES levels: control ~2500 fold; for FoxA2 relative transcript level over hES levels: control ~75 fold. An excerpt:
To assay the individual protein components within the cell conditioned medium defined by the microarray analysis, the individual components were included throughout stages 2 and 3 of a directed differentiation protocol. […] Panels B-G show immunohistochemical stainings for Pdx1 and Hnf1-beta for the control reaction (panel B, D and F) and the reaction performed with the addition of Hb-EGF (panels C, E and G).
Since we have seen that the Pan-CM induced differentiation of the pluripotent culture results in an increased presence of pancreatic progenitors within forward differentiating cultures we next assayed the individual components of the cell conditioned medium as single additives throughout stage 2 and stage 3 of a directed differentiation protocol. Stage 2 and stage 3 cultures were assayed since these are the stages which normally establish pancreatic endoderm within directed differentiation protocols. An outlined schematic of the components used throughout the directed differentiation is provided in FIG. 45 panel A. Three genes were assayed throughout this series of experiments: the endodermal gene FoxA2, the early pancreatic progenitor gene Pdx1 and the endocrine progenitor gene Nkx6.1. […] The most dramatic effect noted within the genes assayed throughout this series of experiments was observed within the Pdx1 transcript levels obtained within cultures that had either Hb-EGF or FGF10 included throughout stage 2 and stage 3.
While this series of experiments have successfully established a beneficial effect for the inclusion of a FGF ligand within throughout stages 2 and 3 of a directed differentiation protocol, it should be noted many directed differentiation protocols already currently include a either FGF10 or FGF7 within either stage 2, stage 3 or both. […] This effect may have been due to the high concentration of Activin A used within these reactions 100 ng/ml. This high concentration was chosen because it is the typical concentration used in generating endoderm during stage 1 of directed differentiation protocols, however the actual concentration present within the Pan-CM was undetermined and may have been quite lower. […] This implies that the benefit due to their presence within the directed differentiation protocol may only be detectable by assaying other pancreatic markers or assaying the directed differentiation cultures at later stages, or as in them being a supportive component in a multi-factorial additive provision, yet unable to operate to induce pancreatic fates when provided alone.

The next series has as its system pluripotent cultures. Nature of the series: Stage 4 administration of individual defined components in directed differentiation, RT-qPCR. As to conditions: component added at stage 4, 4 days. An excerpt:
FIG. 46 (A-B)—Stage 4 administration of defined components. Pluripotent cultures were passaged onto matrigel and maintained in the presence of MEF-conditioned medium for three days before being subjected to a directed differentiation protocol. At the end of stage 3 the individual components of the cell conditioned medium were supplemented into the cultures. After 4 days RNA was extracted from the various cultures and subjected to RT-qPCR analysis for key markers.
We next explored if there were any beneficial effects from inclusion of the individual components of the cell conditioned medium in stage 4 cultures. The individual components were assayed in a directed differentiation protocol for their ability to up regulate markers of the pancreatic truck progenitor state. […] It was noted that both Mfap5 and Nbl1 up regulated the expression of HNF6.
(Real-time PCR tracks product formation cycle by cycle.)

In a further series the test system is Bmp4. Nature of the series: Bmp4 stimulus of pluripotent cells with Nbl1 or Noggin: phospho smad 1/5/8 Western/IHC, ID factor RNA. As to conditions: for ID2 and ID4, direct gene targets of Bmp4 signaling / Bmp4 induced phosphorylated smad 1/5/8: 24 hours; for ID2 and ID4, direct gene targets of Bmp4 signaling: RNA analysis; for Bmp4 induced phosphorylated smad 1/5/8: Western blot and IHC. The protocol:
FIG. 42 (A-C)—Nbl1 inhibits BMPs. Pluripotent cells were incubated in the presence of Bmp4 alone or in combination with Nbl1 or Noggin for 24 hours. The following day cultures were assayed for downstream targets of Bmp4 signaling. […] Note the reduced expression of the phosphorylated smads for both Nbl1 and Noggin. […] In addition the down stream activation of AFP was loss in the cultures treated with Nbl1 and Noggin.
Our initial experiment testing the ability of a Pan-CM informed defined medium ability to replicate the direct induction of pancreatic fates relied on the use of Noggin as a BMP inhibitor. This was due to the fact that Nbl1 was not available at the time so a member of the same family of proteins was used. We obtained the NBL1 protein (Sino Biologicals, cat number 10169-H02H) and determined if Nbl1 operates as a Bmp signaling inhibitor. Pluripotent cultures were subjected to a Bmp4 stimulus in the presence and absence of either Noggin or Nbl1. […] This inhibitory effect was also observed by immunohistochemical analysis of the treated cultures and is shown in FIG. 42 panel B. In addition the direct gene targets of Bmp4 signaling, ID2 and ID4, were assayed and shown to be inhibited in the presence of Noggin or Nbl1 (FIG. 42 panel C) as was the downstream target of Afp (panel B).
In general terms: A western blot detects proteins with antibodies after separation by electrophoresis.

These results are taken from US20150368616A1, “METHODS FOR INDUCTION OF CELL FATES FROM PLURIPOTENT CELLS” (THE CLEVELAND CLINIC FOUNDATION, priority 2013, published 2015).

As for `CCC(=O)[O-].[Na+]` [sodium propionate], the “effects on pancreas-specific transcript levels” value in series [1] is “minor in comparison”.
Consider Activin A: Activin receptor agonist, for which the “effect of continued incubation on the cultures” value in the series on hES cultures (100 ng/ml throughout stage 2 and 3) is recorded as “detrimental effect on the cultures”. In addition, in the series on pluripotent cultures, the NKX6.1 expression entry is “positively effected” and the PDX1 expression entry is “significantly up-regulated”.
As to “Cxcl12: CXCR4 agonist, stromal cell derived factor one”, in the series on hES cultures, the “Pdx1 relative transcript level over hES levels” value (shortened to “Pdx1 relative transcript level”) was “slight increase”. In addition, the PDX1 expression result in the series on pluripotent cultures was “down-regulated”.

B1: Nbl1: DAN family protein, NBL1 protein (Sino Biologicals, cat number 10169-H02H) (protein, UniProt P41271 17-181, looked up)
Neuroblastoma suppressor of …: AAPPPINKLALFPDKSAWCEAKNITQIVGHSGCEAKSIQNRACLGQCFSYSVPNTFPQSTESLVHCDSCMPAQSMWEIVTLECPGHEEVPRVDKLVEKILHCSCQACGKEPSHEGLSVYVQGEDGPGSQPGTHPHPHPHPHPGGQTPEPEDPPGAPHTEEEGAED
With B1, in the series with Bmp4, the “function on Bmp4 signaling” value is given as “functions as a Bmp4 inhibitor”; the “ID2 and ID4, direct gene targets of Bmp4 signaling” value is reported as “inhibited”; the “Bmp4 induced phosphorylated smad 1/5/8” value is on record as “failed to produce this BMP specific phosphorylation event”. Moreover, in the series on pluripotent cultures, the HNF6 expression entry is reported as “up regulated” and the NKX6.1 expression entry is listed as “positively effected”.

B2: Il11: IL11R agonist (protein, UniProt P47873 22-199, looked up)
Interleukin-11: PGPPAGSPRVSSDPRADLDSAVLLTRSLLADTRQLAAQMRDKFPADGDHSLDSLPTLAMSAGTLGSLQLPGVLTRLRVDLMSYLRHVQWLRRAGGPSLKTLEPELGALQARLERLLRRLQLLMSRLALPQAAPDQPVIPLGPPASAWGSIRAAHAILGGLHLTLDWAVRGLLLLKTRL
Regarding B2, in the series on hES cultures, the “FoxA2 relative transcript level over hES levels” value is given as about 160 fold and the “Pdx1 relative transcript level” value is “slight increase”. For the same molecule, in the series with pluripotent cultures, the NKX6.1 expression result was “positively effected” and the PDX1 expression result is reported as “significantly up-regulated”.

B3: Noggin: BMP inhibitor (protein, UniProt Q13253 28-232, looked up)
Noggin: QHYLHIRPAPSDNLPLVDLIEHPDPIFDPKEKDLNETLLRSLLGGHYDPGFMATSPPEDRPGGGGGAAGGAEDLAELDQLLRQRPSGAMPSEIKGLEFSEGLAQGKKQRLSKKLRRKLQMWLWSQTFCPVLYAWNDLGSRFWPRYVKVGSCFSKRSCSVPEGMVCKPSKSVHLTVLRWRCQRRGGQRCGWIPIQYPIISECKCSC
As for B3, in the series on Bmp4, the “ID2 and ID4, direct gene targets of Bmp4 signaling” value is listed as “inhibited”; the “Bmp4 induced phosphorylated smad 1/5/8” value is on record as “failed to produce this BMP specific phosphorylation event”.

B4: Hb-EGF: EGFR agonist (protein, UniProt Q99075 63-148, looked up)
Heparin-binding EGF-like …: DLQEADLDLLRVTLSSKPQALATPNKEEHGKRKKKGKGLGKKRDPCLRKYKDFCIHGECKYVKELRAPSCICHPGYHGERCHGLSL
As to B4, in the series on hES cultures, the “FoxA2 relative transcript level over hES levels” value is reported as about 125 fold and the “Pdx1 relative transcript level” value is about 8500 fold. Moreover, in the series on pluripotent cultures, the PDX1 expression entry was “down-regulated”.

B5: FGF10: FGF growth factor (protein, UniProt O15520 38-208, looked up)
Fibroblast growth factor 10: QALGQDMVSPEATNSSSSSFSSPSSAGRHVRSYNHLQGDVRWRKLFSFTKYFLKIEKNGKVSGTKKENCPYSILEITSVEIGVVAVKAINSNYYLAMNKKGKLYGSKEFNNDCKLKERIEENGYNTYASFNWQHNGRQMYVALNGKGAPRRGQKTRRKNTSAHFLPMVVHS
As to B5, the “Pdx1 relative transcript level” value with hES cultures was about 8500 fold.

B6: Mfap5: non-canonical notch agonist (protein, UniProt Q9QZJ6 29-164, looked up)
Microfibrillar-associated …: QRGDDVPETFTDDPNLVNDPSTDDTALADITPSTDDLAGDKNATAECRDEKFACTRLYSVHRPVRQCVHQSCFTSLRRMYIINNEICSRLVCKEHEAMKDELCRQMAGLPPRRLRRSNYFRLPPCENMNLQRPDGL
For B6, in the series on pluripotent cultures, the HNF6 expression result is on record as “up regulated”, the NKX6.1 expression result was “positively effected” and the PDX1 expression entry was “significantly up-regulated”.
